Bridges are numbered along the chain shown (N, C = ends). [ ]: non-standard residue; d: D form. code β = tetrazole-bearing lysine Lys(tetrazole), tetrazole half of pyrazoline cross-linker; L3 = not defined here

The source of these data is patent publication US20100093086A1 (RESEARCH FOUNDATION OF STATE UNIVERSITY OF NEW YORK, published 2010).

T1: GST-MDMX containing full-length human MDMX (human, UniProt O15151 1-490)
T1 construct: mature; Expressed in E. coli and purified on glutathione-agarose; not shown: GST tag
T1 sequence (looked up): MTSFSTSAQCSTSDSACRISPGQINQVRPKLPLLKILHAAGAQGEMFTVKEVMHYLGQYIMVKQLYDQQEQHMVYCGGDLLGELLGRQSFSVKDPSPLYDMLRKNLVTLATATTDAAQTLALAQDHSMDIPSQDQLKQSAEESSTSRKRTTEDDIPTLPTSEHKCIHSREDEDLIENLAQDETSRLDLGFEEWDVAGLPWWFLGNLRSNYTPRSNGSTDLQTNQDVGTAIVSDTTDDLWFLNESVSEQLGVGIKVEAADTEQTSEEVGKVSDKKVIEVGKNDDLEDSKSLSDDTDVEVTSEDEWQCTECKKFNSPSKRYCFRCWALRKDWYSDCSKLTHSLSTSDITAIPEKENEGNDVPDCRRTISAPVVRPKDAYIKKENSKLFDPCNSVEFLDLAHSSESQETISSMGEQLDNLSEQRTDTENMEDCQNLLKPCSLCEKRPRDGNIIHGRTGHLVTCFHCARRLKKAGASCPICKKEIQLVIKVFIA

B1: sPMI-4 (peptide)
peptide: Ac-TSFXRYWXRLSP-NH2
modifications: bridge 4-8 via L3; not fully specified (residues 4, 8); printed as TSFαRYWβRLSP; also: pyrazoline cross-linker L3 between α and β
notes: Stapled peptide
B2: sPMI-5 (peptide)
peptide: Ac-TSFXQYW[code β]RLRP-NH2
modifications: bridge 4-8; not fully specified (residue 4, bridges); printed as TSFαQYWβRLRP; also: pyrazoline cross-linker L3 between α and β
notes: Stapled peptide
B3: sPMI-3 (peptide)
peptide: Ac-TSFXQYWNLLXP-NH2
modifications: bridge 4-11 via L3; not fully specified (residues 4, 11); printed as TSFαQYWNLLβP; also: pyrazoline cross-linker L3 between α and β
notes: Stapled peptide
B4: sPMI-2 (peptide)
peptide: Ac-TSFAXYWNXLSP-NH2
modifications: bridge 5-9 via L3; not fully specified (residues 5, 9); printed as TSFAαYWNβLSP; also: pyrazoline cross-linker L3 between α and β
notes: Stapled peptide

T2 sequence (Q00987 whole entry): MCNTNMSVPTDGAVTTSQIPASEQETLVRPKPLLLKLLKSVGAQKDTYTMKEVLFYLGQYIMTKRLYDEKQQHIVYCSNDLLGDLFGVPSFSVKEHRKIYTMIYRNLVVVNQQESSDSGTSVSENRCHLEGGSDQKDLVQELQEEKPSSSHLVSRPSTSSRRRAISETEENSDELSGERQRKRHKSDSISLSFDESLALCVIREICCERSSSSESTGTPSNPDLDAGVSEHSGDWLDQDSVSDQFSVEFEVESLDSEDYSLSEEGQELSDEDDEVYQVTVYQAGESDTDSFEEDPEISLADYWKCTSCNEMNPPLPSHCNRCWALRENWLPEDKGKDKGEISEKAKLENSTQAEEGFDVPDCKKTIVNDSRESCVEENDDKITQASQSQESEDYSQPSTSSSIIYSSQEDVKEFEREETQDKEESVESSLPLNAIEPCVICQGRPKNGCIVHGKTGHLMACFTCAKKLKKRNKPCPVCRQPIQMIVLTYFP

One experiment has as its target T2, GST-MDM2 containing full-length human MDM2 (human, UniProt Q00987 1-491).
T2 construct: mature; Expressed in E. coli and purified on glutathione-agarose; also called GST-HDM2; not shown: GST tag
Nature of the experiment: competition ELISA: peptide + GST-MDM2 on plated His6-p53. For orientation: An ELISA detects its analyte on a solid surface through an enzyme-linked reagent.
On to Ac-LTFXHYWXQLTS-NH2 (bridge 4-8 via L3; not fully specified (residues 4, 8); printed as LTFαHYWβQLTS, Stapled peptide) [sPDI-4], for which the IC50 was 87 nM.

Turning to Ac-LTFXHYWXRLRS-NH2 (bridge 4-8 via L3; not fully specified (residues 4, 8); printed as LTFαHYWβRLRS, Stapled peptide) [sPDI-9], the IC50 stood at 179 nM.

Take Ac-LTFXHYWXRLTS-NH2 (bridge 4-8 via L3; not fully specified (residues 4, 8); printed as LTFαHYWβRLTS, Stapled peptide) [sPDI-8]: the IC50 worked out at 55 nM.

Regarding B1, the IC50 is 1230 nM.

Turning to B2, the IC50 came out at 597 nM.

Consider B3, for which the IC50 came out at 23 nM.

For B4, the IC50 was determined as 1080 nM.

In the next experiment the target is T1, GST-MDMX containing full-length human …. Description: competition ELISA: peptide + GST-MDMX on plated His6-p53.
Protocol: ELISA plates were incubated with 2.5 μg/ml His6-p53 in phosphate-buffered saline (PBS) for 16 h. After washing with PBS+0.1% Tween 20 (PBST), the plates were blocked with PBS+5% nonfat dry milk+0.1% Tween 20 (PBSMT) for 0.5 hour. The peptides were dissolved in DMSO. […] The plates were developed by incubation with TMB peroxidase substrate (KPL) and measured by absorbance at 450 nm.
For the molecule Ac-LTFXHYWXQLTS-NH2 (bridge 4-8 via L3; not fully specified (residues 4, 8); printed as LTFαHYWβQLTS, Stapled peptide) [sPDI-4], the concentration for half-maximal inhibition (IC50) came out at 390 nM.

In the case of Ac-LTFXHYWXRLRS-NH2 (bridge 4-8 via L3; not fully specified (residues 4, 8); printed as LTFαHYWβRLRS, Stapled peptide) [sPDI-9], the IC50 was 525 nM.

With Ac-LTFXHYWXRLTS-NH2 (bridge 4-8 via L3; not fully specified (residues 4, 8); printed as LTFαHYWβRLTS, Stapled peptide) [sPDI-8], the IC50 came out at 231 nM.

With B1, the IC50 came to 1840 nM.

As to B2, the concentration for half-maximal inhibition (IC50) was found to be 298 nM.

As for B3, the IC50 stood at 1490 nM.

For the molecule B4, the IC50 stood at 3650 nM.

The IC50 is the concentration needed to halve the response being measured.
